Test results as given in publication PMC11310380 (Cell reports, 2024).

Biological target: the molecule itself
Assay: cross-linking

B1: P9-hTTN3 (human Tentonin 3/TMEM150C with the P9 sequence at its N terminus) (natural protein, UniProt B9EJG8 1-249, looked up)
chain: MDGKKCSVWMFLPLVFTLFTSAGLWIVYFIAVEDDKILPLNSAERKPGVKHAPYISIAGDDPPASCVFSQVMNMAAFLALVVAVLRFIQLKPKVLNPWLNISGLVALCLASFGMTLLGNFQLTNDEEIHNVGTSLTFGFGTLTCWIQAALTLKVNIKNEGRRVGIPRVILSASITLCVVLYFILMAQSIHMYAARVQWGLVMCFLSYFGTFAVEFRHYRYEIVCSEYQENFLSFSESLSEASEYQTDQV
For B1, the “stoichiometry N” value was 4.
